The values below come from publication PMC10322983, “Intramolecular interaction kinetically regulates fibril formation by human and mouse α-synuclein” (Scientific Reports, 2023).

The data set concerns the molecule itself. Put plainly: thioflavin T fluorescence of fibril formation; monomeric αS (50 μM in Fig. 5; 20–200 μM in Fig. 4) with 10 μM ThT, 96-well plates with Teflon polybeads, shaking at 500 rpm, 37 °C (other temperatures in Fig. 6), PBS.

B1: m-αS Δ104–140 (domain or fragment)
chain: not shown
B1: the binding result was “binds”.
